Reference: the supplement of paper PMC7877785
± gives the uncertainty stated by the source.

Assay: self-splicing fitness, log relative to wild type (ln ratio); higher = more splicing; Tetrahymena group I intron in knt gene, E. coli kanamycin selection, DiMSum; sequences stand for … in CUCUCU…GGAGGGAAAAGUUAUCAGGCAUGCACCUGGUAGCUAGUCUUUAAACCAAUAGAUUGCAUCGGUUUAAAAGGCAAGACCGUCAAAUUGCGGGAAAGGGGUCAACAGCCGUUCAGUACCAAGUCUCAGGGGAAACUUUGAGAUGGCCUUGCAAAGGGUAUGGUAAUAAGCUGACGGACAUGGUCCUAACCACGCAGCCAAGUCCUAAGUCAACAGAUCUUCUGUUGAUAUGGAUGCAGUUCACAGACUAAAUGUCGGUCGGGGAAGAUGUAUUCUUCUCAUAAGAUAUAGUCGGACCUCUCCUUAAUGGGAGCUAGCGGAUGAAGUGAUGCAACACUGGAGCCGCUGGGAACUAAUUUGUAUGCGAAAGUAUAUUGAUUAGUUUUGGAGUACUCGUGGUCG
How it was run: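 Pooled colonies went to amplicon sequencing on an Illumina HiSeq 2500 after six replicate transformations. The plates were LB agar with 100 μg/mL carbenicillin, 50 μM IPTG and 0.2% rhamnose, with or without 25 μg/mL kanamycin, incubated overnight at 37°C or 30°C. The E. coli BL21(DE3) library had all eight P1ex-region intron nucleotides randomised, the intron placed in the knt kanamycin-resistance gene on pET-22b(+). DiMSum fitness is the error-weighted combination of replicate fold changes, kanamycin against none, normalised to wild type.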

ACCCAGCAAUAUUACGAACU
self-splicing fitness (ln) (30 °C): -1.33 ± 0.11
self-splicing fitness (ln) (37 °C): -0.29 ± 0.13

ACCCAGCAAUAUUACGACCU
self-splicing fitness (ln) (30 °C): -0.748 ± 0.062
self-splicing fitness (ln) (37 °C): -0.326 ± 0.074

ACCCAGCAAUAUUACGAGAC
self-splicing fitness (ln) (30 °C): -2.34 ± 0.17
self-splicing fitness (ln) (37 °C): -1.89 ± 0.18

ACCCAGCAAUAUUACGAGCA
self-splicing fitness (ln) (30 °C): -0.745 ± 0.08
self-splicing fitness (ln) (37 °C): -1.31 ± 0.088

ACCCAGCAAUAUUACGAGGC
self-splicing fitness (ln) (30 °C): -2.72 ± 0.1
self-splicing fitness (ln) (37 °C): -0.981 ± 0.089

ACCCAGCAAUAUUACGAGGU
self-splicing fitness (ln) (30 °C): -3.8 ± 0.12
self-splicing fitness (ln) (37 °C): -2.93 ± 0.14

ACCCAGCAAUAUUACGAUAC
self-splicing fitness (ln) (30 °C): -2.94 ± 0.17
self-splicing fitness (ln) (37 °C): -0.588 ± 0.13

ACCCAGCAAUAUUACGAUUG
self-splicing fitness (ln) (30 °C): -4.36 ± 0.19
self-splicing fitness (ln) (37 °C): -2.78 ± 0.16

ACCCAGCAAUAUUACGCAAC
self-splicing fitness (ln) (30 °C): -2.62 ± 0.12
self-splicing fitness (ln) (37 °C): -0.73 ± 0.11

ACCCAGCAAUAUUACGCAAG
self-splicing fitness (ln) (30 °C): -2.81 ± 0.11
self-splicing fitness (ln) (37 °C): -1.14 ± 0.11

ACCCAGCAAUAUUACGCAUU
self-splicing fitness (ln) (30 °C): -0.546 ± 0.043
self-splicing fitness (ln) (37 °C): 0.216 ± 0.061

ACCCAGCAAUAUUACGCCGA
self-splicing fitness (ln) (30 °C): -1.26 ± 0.075
self-splicing fitness (ln) (37 °C): -1.14 ± 0.082

ACCCAGCAAUAUUACGCCGC
self-splicing fitness (ln) (30 °C): -3.12 ± 0.18
self-splicing fitness (ln) (37 °C): -2.37 ± 0.2

ACCCAGCAAUAUUACGCCUU
self-splicing fitness (ln) (30 °C): -0.51 ± 0.062
self-splicing fitness (ln) (37 °C): 0.161 ± 0.081

ACCCAGCAAUAUUACGCUAA
self-splicing fitness (ln) (30 °C): -1.67 ± 0.069
self-splicing fitness (ln) (37 °C): -1.33 ± 0.068

ACCCAGCAAUAUUACGGCCA
self-splicing fitness (ln) (30 °C): -1.17 ± 0.075
self-splicing fitness (ln) (37 °C): -0.171 ± 0.09

ACCCAGCAAUAUUACGGCGU
self-splicing fitness (ln) (30 °C): -2.08 ± 0.081
self-splicing fitness (ln) (37 °C): -0.746 ± 0.084

ACCCAGCAAUAUUACGGGUG
self-splicing fitness (ln) (30 °C): -2.14 ± 0.061
self-splicing fitness (ln) (37 °C): -0.937 ± 0.058

ACCCAGCAAUAUUACGGUGU
self-splicing fitness (ln) (30 °C): -2.69 ± 0.076
self-splicing fitness (ln) (37 °C): -1.64 ± 0.11

ACCCAGCAAUAUUACGUACU
self-splicing fitness (ln) (30 °C): -1.12 ± 0.059
self-splicing fitness (ln) (37 °C): -0.926 ± 0.08

ACCCAGCAAUAUUACGUAGA
self-splicing fitness (ln) (30 °C): -2.03 ± 0.1
self-splicing fitness (ln) (37 °C): -1.39 ± 0.11

ACCCAGCAAUAUUACGUCGA
self-splicing fitness (ln) (30 °C): -1.03 ± 0.078
self-splicing fitness (ln) (37 °C): -0.528 ± 0.077

ACCCAGCAAUAUUACGUCGC
self-splicing fitness (ln) (30 °C): -1.39 ± 0.069
self-splicing fitness (ln) (37 °C): -0.784 ± 0.076

ACCCAGCAAUAUUACGUCUA
self-splicing fitness (ln) (30 °C): -1.41 ± 0.093
self-splicing fitness (ln) (37 °C): -0.988 ± 0.09

ACCCAGCAAUAUUACGUUAA
self-splicing fitness (ln) (30 °C): -1.6 ± 0.078
self-splicing fitness (ln) (37 °C): -0.769 ± 0.071

ACCCAGCAAUAUUACGUUCU
self-splicing fitness (ln) (30 °C): -1.31 ± 0.062
self-splicing fitness (ln) (37 °C): -1 ± 0.071

ACCGAGCAAUAUUACGAAUC
self-splicing fitness (ln) (30 °C): -4.8 ± 0.42
self-splicing fitness (ln) (37 °C): -2.61 ± 0.32

ACCGAGCAAUAUUACGAGCG
self-splicing fitness (ln) (30 °C): -3.24 ± 0.21
self-splicing fitness (ln) (37 °C): -0.734 ± 0.16

ACCGAGCAAUAUUACGAGGG
self-splicing fitness (ln) (30 °C): -3.2 ± 0.17
self-splicing fitness (ln) (37 °C): -3.06 ± 0.21

ACCGAGCAAUAUUACGAUCA
self-splicing fitness (ln) (30 °C): -2.6 ± 0.24
self-splicing fitness (ln) (37 °C): -0.928 ± 0.19

ACCGAGCAAUAUUACGCACU
self-splicing fitness (ln) (30 °C): -1.62 ± 0.14
self-splicing fitness (ln) (37 °C): -0.517 ± 0.13

ACCGAGCAAUAUUACGCCUU
self-splicing fitness (ln) (30 °C): -2.75 ± 0.24
self-splicing fitness (ln) (37 °C): -1.32 ± 0.19

ACCGAGCAAUAUUACGCGUA
self-splicing fitness (ln) (30 °C): -2.38 ± 0.14
self-splicing fitness (ln) (37 °C): -0.999 ± 0.12

ACCGAGCAAUAUUACGGAAU
self-splicing fitness (ln) (30 °C): -3.65 ± 0.2
self-splicing fitness (ln) (37 °C): -2.33 ± 0.25

ACCGAGCAAUAUUACGGAGA
self-splicing fitness (ln) (30 °C): -1.34 ± 0.29
self-splicing fitness (ln) (37 °C): -1.48 ± 0.28

ACCGAGCAAUAUUACGUGAA
self-splicing fitness (ln) (30 °C): -4.46 ± 0.17
self-splicing fitness (ln) (37 °C): -2.3 ± 0.14

ACCGAGCAAUAUUACGUUGC
self-splicing fitness (ln) (30 °C): -3.29 ± 0.32
self-splicing fitness (ln) (37 °C): -1.33 ± 0.25

ACCUAGCAAUAUUACGAACG
self-splicing fitness (ln) (30 °C): -1.25 ± 0.12
self-splicing fitness (ln) (37 °C): -1.07 ± 0.19

ACCUAGCAAUAUUACGAAUU
self-splicing fitness (ln) (30 °C): -2.72 ± 0.13
self-splicing fitness (ln) (37 °C): -0.574 ± 0.12

ACCUAGCAAUAUUACGACGA
self-splicing fitness (ln) (30 °C): -0.405 ± 0.11
self-splicing fitness (ln) (37 °C): -0.784 ± 0.093

ACCUAGCAAUAUUACGCCAC
self-splicing fitness (ln) (30 °C): -2.11 ± 0.4

ACCUAGCAAUAUUACGCCUC
self-splicing fitness (ln) (30 °C): -1.88 ± 0.13
self-splicing fitness (ln) (37 °C): -1.51 ± 0.15

ACCUAGCAAUAUUACGGAAA
self-splicing fitness (ln) (30 °C): -1.79 ± 0.16
self-splicing fitness (ln) (37 °C): -1.51 ± 0.12

ACCUAGCAAUAUUACGGAAU
self-splicing fitness (ln) (30 °C): -1.96 ± 0.08
self-splicing fitness (ln) (37 °C): -1.19 ± 0.09

ACCUAGCAAUAUUACGGAGU
self-splicing fitness (ln) (30 °C): -3.61 ± 0.13
self-splicing fitness (ln) (37 °C): -2.39 ± 0.12

ACCUAGCAAUAUUACGGCCA
self-splicing fitness (ln) (30 °C): -1.33 ± 0.13
self-splicing fitness (ln) (37 °C): -0.234 ± 0.12

ACCUAGCAAUAUUACGGCGU
self-splicing fitness (ln) (30 °C): -0.278 ± 0.056
self-splicing fitness (ln) (37 °C): 0.12 ± 0.07

ACCUAGCAAUAUUACGGGGC
self-splicing fitness (ln) (30 °C): -3.06 ± 0.15
self-splicing fitness (ln) (37 °C): -1.66 ± 0.15
